Results published in the Human Domainome abundance scans (Beltran et al. 2025).
± gives the uncertainty stated by the source.

B1: Segment polarity protein dishevelled homolog DVL-3, residues 2 to 81; numbered along this chain, Q92997 (parent)
chain: GETKIIYHLDGQETPYLVKLPLPAERVTLADFKGVLQRPSYKFFFKSMDDDFGVVKEEISDDNAKLPCFNGRVVSWLVSA

Variants of: B1
Test: abundance fitness (aPCA) (normalised: wild type 0, dead -1); higher = more abundant; growth selection in yeast, the domain comes from the species named
Conditions: Homo sapiens

Going from GETKIIYHLDGQETPYLVKLPFPAERVTLADFKGVLQRPSYKFFFKSMDDDFGVVKEEISDDNAKLPCFNGRVVSWLVSA [L22F] to GETKIIYHLDGQETPYLVKLPSPAERVTLADFKGVLQRPSYKFFFKSMDDDFGVVKEEISDDNAKLPCFNGRVVSWLVSA [L22S], the abundance fitness falls from -0.502 ± 0.17 to -0.822 ± 0.1.

GETKIIYHLDGQETPYLVKLPDPAERVTLADFKGVLQRPSYKFFFKSMDDDFGVVKEEISDDNAKLPCFNGRVVSWLVSA [L22D] and GETKIIYHLDGQETPYLVKLPPPAERVTLADFKGVLQRPSYKFFFKSMDDDFGVVKEEISDDNAKLPCFNGRVVSWLVSA [L22P] are within error of each other in abundance fitness: -0.574 ± 0.12 for the first, -0.645 ± 0.12 for the second.

First: GETKIIYHLDGQETPYLVKLPWPAERVTLADFKGVLQRPSYKFFFKSMDDDFGVVKEEISDDNAKLPCFNGRVVSWLVSA [L22W]
Second: GETKIIYHLDGQETPYLVKLPVPAERVTLADFKGVLQRPSYKFFFKSMDDDFGVVKEEISDDNAKLPCFNGRVVSWLVSA [L22V]
The abundance fitness of the first is lower: -0.578 ± 0.084 for the first, 0.059 ± 0.047 for the second.

Compared with GETKIIYHLDGQETPYLVKLPMPAERVTLADFKGVLQRPSYKFFFKSMDDDFGVVKEEISDDNAKLPCFNGRVVSWLVSA [L22M], GETKIIYHLDGQETPYLVKLPQPAERVTLADFKGVLQRPSYKFFFKSMDDDFGVVKEEISDDNAKLPCFNGRVVSWLVSA [L22Q] is lower in abundance fitness: -0.017 ± 0.073 for the first, -0.429 ± 0.1 for the second.

GETKIIYHLDGQETPYLVKLPHPAERVTLADFKGVLQRPSYKFFFKSMDDDFGVVKEEISDDNAKLPCFNGRVVSWLVSA [L22H] and GETKIIYHLDGQETPYLVKLPEPAERVTLADFKGVLQRPSYKFFFKSMDDDFGVVKEEISDDNAKLPCFNGRVVSWLVSA [L22E] are the same in abundance fitness: -0.617 ± 0.17 for the first, -0.617 ± 0.12 for the second.

GETKIIYHLDGQETPYLVKLPNPAERVTLADFKGVLQRPSYKFFFKSMDDDFGVVKEEISDDNAKLPCFNGRVVSWLVSA [L22N] and GETKIIYHLDGQETPYLVKLPTPAERVTLADFKGVLQRPSYKFFFKSMDDDFGVVKEEISDDNAKLPCFNGRVVSWLVSA [L22T] are within error of each other in abundance fitness: -0.923 ± 0.24 for the first, -0.598 ± 0.11 for the second.

First: GETKIIYHLDGQETPYLVKLPKPAERVTLADFKGVLQRPSYKFFFKSMDDDFGVVKEEISDDNAKLPCFNGRVVSWLVSA [L22K]
Second: GETKIIYHLDGQETPYLVKLPRPAERVTLADFKGVLQRPSYKFFFKSMDDDFGVVKEEISDDNAKLPCFNGRVVSWLVSA [L22R]
The abundance fitness of the first is higher: -0.019 ± 0.068 for the first, -0.656 ± 0.071 for the second.

First: GETKIIYHLDGQETPYLVKLPGPAERVTLADFKGVLQRPSYKFFFKSMDDDFGVVKEEISDDNAKLPCFNGRVVSWLVSA [L22G]
Second: GETKIIYHLDGQETPYLVKLPAPAERVTLADFKGVLQRPSYKFFFKSMDDDFGVVKEEISDDNAKLPCFNGRVVSWLVSA [L22A]
The abundance fitness of the first is lower: -0.856 ± 0.083 for the first, -0.604 ± 0.085 for the second.

Compared with GETKIIYHLDGQETPYLVKLPCPAERVTLADFKGVLQRPSYKFFFKSMDDDFGVVKEEISDDNAKLPCFNGRVVSWLVSA [L22C], GETKIIYHLDGQETPYLVKLPLWAERVTLADFKGVLQRPSYKFFFKSMDDDFGVVKEEISDDNAKLPCFNGRVVSWLVSA [P23W] is lower in abundance fitness: -0.231 ± 0.1 for the first, -0.863 ± 0.14 for the second.

First: GETKIIYHLDGQETPYLVKLPLKAERVTLADFKGVLQRPSYKFFFKSMDDDFGVVKEEISDDNAKLPCFNGRVVSWLVSA [P23K]
Second: GETKIIYHLDGQETPYLVKLPLIAERVTLADFKGVLQRPSYKFFFKSMDDDFGVVKEEISDDNAKLPCFNGRVVSWLVSA [P23I]
The abundance fitness of the first is lower: -0.671 ± 0.12 for the first, -0.112 ± 0.14 for the second.

GETKIIYHLDGQETPYLVKLPLHAERVTLADFKGVLQRPSYKFFFKSMDDDFGVVKEEISDDNAKLPCFNGRVVSWLVSA [P23H] and GETKIIYHLDGQETPYLVKLPLGAERVTLADFKGVLQRPSYKFFFKSMDDDFGVVKEEISDDNAKLPCFNGRVVSWLVSA [P23G] are within error of each other in abundance fitness: -0.55 ± 0.18 for the first, -0.73 ± 0.082 for the second.

GETKIIYHLDGQETPYLVKLPLQAERVTLADFKGVLQRPSYKFFFKSMDDDFGVVKEEISDDNAKLPCFNGRVVSWLVSA [P23Q] and GETKIIYHLDGQETPYLVKLPLNAERVTLADFKGVLQRPSYKFFFKSMDDDFGVVKEEISDDNAKLPCFNGRVVSWLVSA [P23N] are within error of each other in abundance fitness: -0.731 ± 0.13 for the first, -0.833 ± 0.23 for the second.

Compared with GETKIIYHLDGQETPYLVKLPLFAERVTLADFKGVLQRPSYKFFFKSMDDDFGVVKEEISDDNAKLPCFNGRVVSWLVSA [P23F], GETKIIYHLDGQETPYLVKLPLCAERVTLADFKGVLQRPSYKFFFKSMDDDFGVVKEEISDDNAKLPCFNGRVVSWLVSA [P23C] is lower in abundance fitness: -0.405 ± 0.14 for the first, -0.79 ± 0.18 for the second.

Going from GETKIIYHLDGQETPYLVKLPLEAERVTLADFKGVLQRPSYKFFFKSMDDDFGVVKEEISDDNAKLPCFNGRVVSWLVSA [P23E] to GETKIIYHLDGQETPYLVKLPLVAERVTLADFKGVLQRPSYKFFFKSMDDDFGVVKEEISDDNAKLPCFNGRVVSWLVSA [P23V], the abundance fitness falls from -0.383 ± 0.085 to -0.739 ± 0.1.

GETKIIYHLDGQETPYLVKLPLLAERVTLADFKGVLQRPSYKFFFKSMDDDFGVVKEEISDDNAKLPCFNGRVVSWLVSA [P23L] and GETKIIYHLDGQETPYLVKLPLYAERVTLADFKGVLQRPSYKFFFKSMDDDFGVVKEEISDDNAKLPCFNGRVVSWLVSA [P23Y] are within error of each other in abundance fitness: -0.682 ± 0.1 for the first, -0.517 ± 0.21 for the second.

First: GETKIIYHLDGQETPYLVKLPLMAERVTLADFKGVLQRPSYKFFFKSMDDDFGVVKEEISDDNAKLPCFNGRVVSWLVSA [P23M]
Second: GETKIIYHLDGQETPYLVKLPLDAERVTLADFKGVLQRPSYKFFFKSMDDDFGVVKEEISDDNAKLPCFNGRVVSWLVSA [P23D]
The abundance fitness of the first is lower: -0.972 ± 0.2 for the first, -0.469 ± 0.13 for the second.

Compared with GETKIIYHLDGQETPYLVKLPLRAERVTLADFKGVLQRPSYKFFFKSMDDDFGVVKEEISDDNAKLPCFNGRVVSWLVSA [P23R], GETKIIYHLDGQETPYLVKLPLAAERVTLADFKGVLQRPSYKFFFKSMDDDFGVVKEEISDDNAKLPCFNGRVVSWLVSA [P23A] is higher in abundance fitness: -0.625 ± 0.069 for the first, -0.395 ± 0.089 for the second.

Work on GETKIIYHLDGQETPYLVKLPLTAERVTLADFKGVLQRPSYKFFFKSMDDDFGVVKEEISDDNAKLPCFNGRVVSWLVSA [P23T] yielded an abundance fitness of -0.862 ± 0.14.
